Assay results published in paper PMC6021111, “Murine leukemia virus p12 tethers the capsid-containing pre-integration complex to chromatin by binding directly to host nucleosomes in mitosis” (PLoS Pathogens, 2018).

What was measured:
[1] = target: partner chain of the complex shown [chain 1 S65A R66A L67A R68A G69A]; assay: SILAC-MS of GST pull-down; conditions: mitotic 293T cell lysates
[2] = target: C-terminally His-tagged N-MLV CA WT (N-tropic murine leukaemia virus (N-MLV)); assay: co-sedimentation
[3] = target: GST-tagged FeLV p12 A53V (feline leukaemia virus (FeLV)); assay: pull-down
[4] = target: GST-tagged Mo-MLV p12_M63I with S61E (Moloney murine leukaemia virus (Mo-MLV)); assay: pull-down
[5] = target: GST-tagged Mo-MLV p12_M63I (Moloney murine leukaemia virus (Mo-MLV)); assay: pull-down
[6] = target: GST-tagged Mo-MLV p12_M63I with S61A (Moloney murine leukaemia virus (Mo-MLV)); assay: pull-down
[7] = target: GST-tagged FeLV p12 I52M (feline leukaemia virus (FeLV)); assay: pull-down
[8] = target: GST-tagged Mo-MLV p12_M63I with S61D (Moloney murine leukaemia virus (Mo-MLV)); assay: pull-down
[9] = test system: hCBS soluble competitor peptide (prototypic foamy virus (PFV)); assay: competition; conditions: scale: fold decrease of nucleosome binding to immobilised hCBS

Sequence of N-MLV p12_WT (purified, untagged) (natural protein) (P03336 130-214 limits assumed): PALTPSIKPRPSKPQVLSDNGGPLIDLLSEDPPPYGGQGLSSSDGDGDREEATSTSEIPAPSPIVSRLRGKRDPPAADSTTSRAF
Sequence of C-terminally His-tagged N-MLV CA WT (N-tropic murine leukaemia virus (N-MLV)) (P03336 215-477 limits assumed): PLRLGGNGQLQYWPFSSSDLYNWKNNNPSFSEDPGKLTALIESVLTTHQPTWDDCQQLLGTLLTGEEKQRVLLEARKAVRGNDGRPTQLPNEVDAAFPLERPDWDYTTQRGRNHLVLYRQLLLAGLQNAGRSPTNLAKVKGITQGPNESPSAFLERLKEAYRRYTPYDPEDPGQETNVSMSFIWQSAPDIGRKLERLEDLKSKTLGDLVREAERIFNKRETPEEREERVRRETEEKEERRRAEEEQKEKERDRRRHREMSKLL

Q: With  as the substance, how does the screen value (SDs from the mean) ([1]; replicate R1) read?
A: 1.1

Q: And the screen value (SDs from the mean) ([1]; replicate R2)?
A: 2.1

Q: What does the source list for “N-MLV p12_WT (purified, untagged) (natural protein)”?
A: amount of p12 pelleted by the CA-nanotubes (67 pmol CA loaded) [2]: 11.2 pmol; stoichiometry N (p12 per CA (1:6)) [2]: 0.167

Q: Which results are given for “histone H2B (from UniProt P62807 1-126) (natural protein)”?
A: fold difference in histone precipitation against the WT FeLV p12 [3]: < 2 fold; fold reduction in histone pull down against GST-p12 M63I [4]: 1.5 fold; fold more histones pulled down from mitotic than from interphase cell lysates [5]: 4 fold; fold reduction of H2B precipitation after kenpaullone [5]: 3.5 fold; fold reduction of H2B precipitation after roscovitine [5]: 1.5 fold; fold reduction in histone pull down against GST-p12 M63I [6]: 3 fold; fold difference in histone precipitation against the WT FeLV p12 [7]: < 2 fold; fold reduction in histone pull down against GST-p12 M63I [8]: 6 fold

Q: For recombinant H3.3 poly-nucleosomes, which binding signal [9] is on record?
A: 10
